As a reminder, the Kd is the equilibrium constant for the complex coming apart. Low values mean a tighter complex, high ones a looser complex. The term koff denotes a measure of how fast the partners let go of each other. High values mean a short-lived complex, low ones a long-lived complex. As a reminder, the kon is the rate constant with which the complex forms. Read a low kon as slow association.

Drawing on patent KR20230168598A (dated 2023), this text covers Kd, koff and kon for two molecules.

The target in this test is T1, 재조합 인간 TIGIT 단백질 (acrobiosystems, China) (human, UniProt Q495A1 22-141).
T1 construct: Bought recombinant protein; also called hTIGIT
T1 sequence: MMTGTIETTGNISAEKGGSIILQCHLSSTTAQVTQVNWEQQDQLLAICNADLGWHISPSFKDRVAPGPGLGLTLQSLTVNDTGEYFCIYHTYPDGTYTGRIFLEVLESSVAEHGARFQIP
Kind of test: SPR (Biacore T200), multi-cycle kinetics, antibody captured, TIGIT as analyte, 1:1 model.

B1: 마우스 항-TIGIT 단클론 항체 2B7 (mouse backbone mIgG1) (antibody, V domains shown)
VH: EVQLQQSGPELVKPGASVKISCKTSGSTFTEYTMHWVKQSHGKSLEWIGGLNPNNGGTSYNQRFKDRATLTVDKSSSTAYMELRSLTSEDSAVYYCTRGTYYDYSFAYWGQGTLVTVSA
VL: DIVMTQSHKFMSTSVGDRVSITCKASHYVSTAVAWYQQKPGQSPKLLIYSPSYRYTGVPDRFTGSGSGTDFTFTISSVQAEDLAVYYCHQHYSTPWTFGGGTKLEIK
notes: also called 항-TIGIT 2B7 항체; 클론 2B7
B1 showed a Kd of 1.89 nM, a koff of 0.000445 s⁻¹ and a kon of 235000 M⁻¹ s⁻¹.

B2: 마우스 항-TIGIT 단클론 항체 3F8 (mouse backbone mIgG1) (antibody, V domains shown)
VH: EVQLQQSGPELVKPGASMKISCKASGYSFTDYIMNWVKQSHGKNLEWIGLSIPYNGGTSYNQKFEGKATLTVDKSSSTAYMELLSLTSEDSAVYYCARGIKGYFAMDYWGQGTSVTVSS
VL: DVVVTQTPLSLPVSFGDQVSISCRSSQSLVNSFGKTYLSWFLHKPGQSPQLIMYGVSNRFSGVPDRFSGSGSGTDFTLKISTIKPEDLGMYYCLQGTHQPWTFGGGTKLEIK
notes: also called 항-TIGIT 3F8 항체; 클론 3F8
With B2, the Kd was 0.986 nM, the koff is 0.000216 s⁻¹ and the kon stood at 219000 M⁻¹ s⁻¹.
